Consider 2 proteins from patent publication US20180022779.

The target in this data set is purified Hb α chains (isolated from lyophilized hemoglobin, Sigma), P69905.
purified Hb α chains (isolated from lyophilized hemoglobin, Sigma), P69905, sequence (P69905 2-142): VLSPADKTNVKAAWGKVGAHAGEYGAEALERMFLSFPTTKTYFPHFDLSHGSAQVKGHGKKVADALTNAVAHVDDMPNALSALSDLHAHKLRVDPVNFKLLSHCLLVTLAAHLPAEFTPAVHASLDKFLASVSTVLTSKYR

B1: human CytB5R3 (endogenous, vascular cell co-culture and human coronary ECs) (protein)
chain: GAQLSTLGHMVLFPVWFLYSLLMKLFQRSTPAITLESPDIKYPLRLIDREIISHDTRRFRFALPSPQHILGLPVGQHIYLSARIDGNLVVRPYTPISSDDDKGFVDLVIKVYFKDTHPKFPAGGKMSQYLESMQIGDTIEFRGPSGLLVYQGKGKFAIRPDKKSNPIIRTVKSVGMIAGGTGITPMLQVIRAIMKDPDDHTVCHLLFANQTEKDILLRPELEELRNKHSARFKLWYTLDRAPEAWDYGQGFVNEEMIRDHLPPPEEEPLVLMCGPPPMIQYACLPNLDHVGHPTERCFVF
Regarding B1, the “met-Hb α reduction, time lapse UV-visible spectrometry of EC lysates mixed with purified Hb α chains and NADH” value is reported as “loss of CytB5R3 inhibited metHb α reduction”.

B2: FLAG-tagged CytB5R3 (Origene) (protein)
chain: B1 chain
For the protein B2, the “met-Hb α reduction, time lapse UV-visible spectrometry of lysates of ECs transfected with CytB5R3-Flag, mixed with purified Hb α chains and NADH” value is given as “overexpression enhanced metHb α reduction”.
